Reference: doi:10.1101/2025.07.08.663636
pKd: −log10 of the molar value.

What was measured:
[1] = biological target: BiP NBD (human BiP nucleotide binding domain, aa 26-405, from 6His-Smt3-BiP NBD) (human) (UniProt P11021); test: SPR
[2] = biological target: BiP NBD (human BiP nucleotide binding domain, aa 26-405, from 6His-Smt3-BiP NBD) (human) (UniProt P11021); test: MST

UniProt P11021, sequence (P11021 26-405): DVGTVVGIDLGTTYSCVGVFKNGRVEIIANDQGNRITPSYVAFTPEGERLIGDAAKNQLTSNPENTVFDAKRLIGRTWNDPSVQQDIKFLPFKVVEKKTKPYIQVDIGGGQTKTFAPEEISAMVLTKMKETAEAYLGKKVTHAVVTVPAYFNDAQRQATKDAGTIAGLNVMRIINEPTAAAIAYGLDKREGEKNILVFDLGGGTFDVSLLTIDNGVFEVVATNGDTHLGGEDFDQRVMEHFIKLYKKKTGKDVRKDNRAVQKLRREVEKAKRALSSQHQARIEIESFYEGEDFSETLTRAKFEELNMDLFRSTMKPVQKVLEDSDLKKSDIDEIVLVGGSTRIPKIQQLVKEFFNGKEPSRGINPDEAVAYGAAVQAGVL

pKd [1] | pKd [2] | Substance
4.63 |  | FL-CDNF (aa 1-161) purified from E. coli (natural protein)
 | < 5.00 | CDNF V118Y-E137A double mutant purified from CHO cells (natural protein)
 | < 5.00 | CDNF A134Q purified from CHO cells (natural protein)
